In test [1] the target is T1, IFN response factor 4 (IRF4), endogenous (human (endogenous in MM1.S and primary …, UniProt Q15306 1-451)).
T1 construct: IRF4, endogenous in human multiple myeloma cells (MM1.S line and primary patient MM cells), detected or precipitated by anti-IRF4; source: endogenous, MM1.S cells (fixed cells and lysate); endogenous, patient-derived primary MM cells
T1 sequence (looked up): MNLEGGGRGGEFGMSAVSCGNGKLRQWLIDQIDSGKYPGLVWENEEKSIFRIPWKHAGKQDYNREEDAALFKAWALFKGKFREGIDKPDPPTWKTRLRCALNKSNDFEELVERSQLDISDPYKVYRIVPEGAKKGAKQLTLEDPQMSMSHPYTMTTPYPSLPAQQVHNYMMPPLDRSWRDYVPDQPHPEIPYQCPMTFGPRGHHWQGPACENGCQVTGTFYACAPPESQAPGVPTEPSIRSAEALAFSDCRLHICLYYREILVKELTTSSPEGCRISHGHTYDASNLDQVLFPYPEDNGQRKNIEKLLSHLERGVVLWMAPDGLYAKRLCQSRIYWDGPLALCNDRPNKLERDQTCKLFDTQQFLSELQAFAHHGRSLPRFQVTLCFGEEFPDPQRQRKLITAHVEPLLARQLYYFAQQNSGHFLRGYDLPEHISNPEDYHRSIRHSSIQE
The test can be described thus: proximity ligation assay (PLA). Particulars: MM1.S cells transfected with OE.HDAC11mut, read off a plot.

The target in test [2] is T1, IFN response factor 4 (IRF4), endogenous. The test can be described thus: proximity ligation; primary MM cells from patient samples, cultured with the patient's serum, untreated or with LPS (5 μg/mL, 24 hours). The note with it: partners not purified.

The record followed here is publication PMC8783683, “Plasma cell dependence on histone/protein deacetylase 11 reveals a therapeutic target in multiple myeloma” (JCI Insight, 2021).

For the molecule “HA-tagged WT HDAC11 (HDAC11^wt.HA) (from UniProt Q96DB2) HDAC11mut”, the response (# Foci Per Cell) was 18 in test [1] (cytoplasmic foci, parent: est. 17) and 13 in test [1] (nuclear foci, parent: est. 105).

B1: histone/protein deacetylase 11 (HDAC11), endogenous (enzyme, UniProt Q96DB2 1-347, looked up)
chain: MLHTTQLYQHVPETRWPIVYSPRYNITFMGLEKLHPFDAGKWGKVINFLKEEKLLSDSMLVEAREASEEDLLVVHTRRYLNELKWSFAVATITEIPPVIFLPNFLVQRKVLRPLRTQTGGTIMAGKLAVERGWAINVGGGFHHCSSDRGGGFCAYADITLAIKFLFERVEGISRATIIDLDAHQGNGHERDFMDDKRVYIMDVYNRHIYPGDRFAKQAIRRKVELEWGTEDDEYLDKVERNIKKSLQEHLPDVVVYNAGTDILEGDRLGGLSISPAGIVKRDELVFRMVRGRRVPILMVTSGGYQKRTARIIADSILNLFGLGLIGPESPSVSAQNSDTPLLPPAVP
notes: HDAC11, endogenous in human multiple myeloma cells (MM1.S line and primary patient MM cells), detected by mouse anti-HDAC11 in PLA; source: endogenous, MM1.S cells; endogenous, patient-derived primary MM cells
For the molecule B1, in test [2], the “fold increase of nuclear PLA complexes with LPS against untreated cells” value worked out at 4.5 fold.
